T1: human PTK7 on cells (tumor cells endogenously expressing PTK7); CHO-hPTK7, CHO-S-hPTK7 and 293T-hPTK7 … (human, UniProt Q13308 31-1070)
T1 construct: whole, on cells; The cell line of each value is named under assay; also called H1299; H358
T1 sequence (looked up): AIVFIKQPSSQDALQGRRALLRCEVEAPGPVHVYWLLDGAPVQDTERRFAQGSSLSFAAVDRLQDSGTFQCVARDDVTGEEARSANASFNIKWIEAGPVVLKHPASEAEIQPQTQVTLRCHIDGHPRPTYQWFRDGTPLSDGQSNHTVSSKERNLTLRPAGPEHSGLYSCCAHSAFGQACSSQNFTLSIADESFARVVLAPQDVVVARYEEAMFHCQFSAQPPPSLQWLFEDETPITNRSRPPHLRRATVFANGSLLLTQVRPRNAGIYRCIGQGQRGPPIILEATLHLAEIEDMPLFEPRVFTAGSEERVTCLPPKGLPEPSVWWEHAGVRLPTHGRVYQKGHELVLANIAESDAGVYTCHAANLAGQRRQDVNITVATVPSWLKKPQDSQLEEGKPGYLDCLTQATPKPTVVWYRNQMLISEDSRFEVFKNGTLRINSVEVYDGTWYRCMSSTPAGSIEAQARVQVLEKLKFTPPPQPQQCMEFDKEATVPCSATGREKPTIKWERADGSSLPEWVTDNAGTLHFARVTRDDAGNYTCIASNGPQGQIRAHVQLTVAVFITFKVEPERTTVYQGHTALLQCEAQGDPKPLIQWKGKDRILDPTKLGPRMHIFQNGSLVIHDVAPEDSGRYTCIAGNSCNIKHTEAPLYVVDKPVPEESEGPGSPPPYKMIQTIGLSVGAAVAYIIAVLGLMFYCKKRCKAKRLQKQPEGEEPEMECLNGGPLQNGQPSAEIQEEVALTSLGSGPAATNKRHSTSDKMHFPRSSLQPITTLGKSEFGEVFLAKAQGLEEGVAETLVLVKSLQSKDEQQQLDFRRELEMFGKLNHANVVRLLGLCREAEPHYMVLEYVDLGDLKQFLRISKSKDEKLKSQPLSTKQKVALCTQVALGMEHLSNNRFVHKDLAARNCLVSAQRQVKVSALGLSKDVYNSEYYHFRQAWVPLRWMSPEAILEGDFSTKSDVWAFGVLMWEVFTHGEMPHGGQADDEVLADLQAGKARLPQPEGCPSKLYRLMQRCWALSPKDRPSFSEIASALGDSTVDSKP

T2: human PTK7 protein (extracellular sequence of human PTK7 with C-terminal 6×His tag) (human, UniProt Q13308 31-704)
T2 construct: extracellular domain; Expressed transiently in HEK293 cells; also called human PTK7-His; human PTK7-His protein
T2 sequence: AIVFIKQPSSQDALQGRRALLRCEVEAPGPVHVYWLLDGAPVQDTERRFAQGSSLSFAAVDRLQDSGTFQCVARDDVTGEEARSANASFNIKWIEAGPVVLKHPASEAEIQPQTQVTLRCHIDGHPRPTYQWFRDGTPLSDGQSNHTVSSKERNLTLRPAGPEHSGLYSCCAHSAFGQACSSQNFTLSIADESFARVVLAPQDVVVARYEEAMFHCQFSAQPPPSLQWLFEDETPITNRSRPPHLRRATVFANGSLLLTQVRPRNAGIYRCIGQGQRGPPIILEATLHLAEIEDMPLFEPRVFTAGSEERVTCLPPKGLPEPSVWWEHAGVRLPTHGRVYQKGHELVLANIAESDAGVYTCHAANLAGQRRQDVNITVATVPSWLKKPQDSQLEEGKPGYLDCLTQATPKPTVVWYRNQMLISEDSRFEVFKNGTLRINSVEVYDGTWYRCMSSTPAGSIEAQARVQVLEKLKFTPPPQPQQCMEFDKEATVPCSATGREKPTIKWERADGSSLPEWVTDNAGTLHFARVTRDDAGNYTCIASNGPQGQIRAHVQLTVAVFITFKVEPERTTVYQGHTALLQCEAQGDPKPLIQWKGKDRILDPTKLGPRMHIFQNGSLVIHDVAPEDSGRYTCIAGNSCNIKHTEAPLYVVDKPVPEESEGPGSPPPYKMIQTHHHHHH

T3: monkey PTK7 protein (extracellular sequence of monkey PTK7 with C-terminal 6×His tag) (monkey)
T3 chain: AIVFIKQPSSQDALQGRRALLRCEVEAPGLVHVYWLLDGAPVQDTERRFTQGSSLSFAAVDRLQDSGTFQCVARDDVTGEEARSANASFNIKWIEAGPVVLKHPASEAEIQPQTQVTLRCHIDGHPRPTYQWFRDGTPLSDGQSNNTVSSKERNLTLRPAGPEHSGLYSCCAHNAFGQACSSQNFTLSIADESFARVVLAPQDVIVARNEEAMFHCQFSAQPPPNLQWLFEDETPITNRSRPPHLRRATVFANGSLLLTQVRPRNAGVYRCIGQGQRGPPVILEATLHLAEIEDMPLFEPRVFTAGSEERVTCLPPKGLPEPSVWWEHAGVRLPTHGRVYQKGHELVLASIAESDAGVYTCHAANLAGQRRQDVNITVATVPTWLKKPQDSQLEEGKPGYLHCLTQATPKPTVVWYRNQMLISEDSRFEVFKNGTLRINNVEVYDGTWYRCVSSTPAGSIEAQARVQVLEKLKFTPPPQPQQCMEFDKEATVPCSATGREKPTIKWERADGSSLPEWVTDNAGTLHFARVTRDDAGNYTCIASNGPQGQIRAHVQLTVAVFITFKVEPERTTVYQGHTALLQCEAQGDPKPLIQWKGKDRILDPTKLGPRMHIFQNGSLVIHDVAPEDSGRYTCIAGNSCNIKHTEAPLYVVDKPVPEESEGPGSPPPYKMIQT

B1: 4B12 (anti-human PTK7 murine antibody) (antibody, V domains shown)
VH: QVTLKESGPGILKPAQTLSLTCSFSGFSLSTSGMGVGWIRQPSGKGLEWLAHIWWDDDKHYNPSLKSRLTISKDASRNQVFLRISSVDTADTATYYCVRSNYGYDWFAYWGQGTLVTVSA
VL: DIKMTQSPSSMYVSLGERVTITCKASQDINTYLGWFQQKPGKSPKTLIYRANRLVDGVPSRFSGSGSGQDYSLTISSLEYEDMEIYYCLQYDEFPLTFGAGTKLEIK
notes: Murine antibody purified from hybridoma supernatant on Protein A
B2: 4E12 (anti-human PTK7 murine antibody) (antibody, V domains shown)
VH: QVQLQQSGAELMRPGVSVKISCKGSGYTFTDYAMHWVKQNHAKSLEWIGVISTYYGNVSYNQKFKGKATMTVDKSSSTAYMELARLTSEDSAIYYCARGFAYWGQGTLVTVSA
VL: DIVITQDELSNLVTSGESVSISCRSSKSLQKKDGKTYLNWFLQRPGQSPQLLIYLMSTRASGVSDRFSGSGSGTDFTLEISRVKAEDVGVYYCQQLVEYPFTFGSGTKLEIK
notes: as for B1
B3: 57F4 (anti-human PTK7 murine antibody) (antibody, V domains shown)
VH: EVQLVESGGGLVKPGGSRKLSCAASGFTFSDYGMHWVRQAPEKGLEWVAYISSGSSALYYADTVKGRFTISRDNVKNTLFLQMTSLRSEDTAMYYCARRSYYSYFAYWGQGTLVTVSA
VL: QIVLTQSPALMAASPGEKVTITCRVSSSISSSTLHWYQQKSETSPKPWIYGTSNLASGVPVRFSGSGSGTSYSLTISSMEAEDAATYYCQQWSSFPFTFGSGTKLEIK
notes: as for B1
B4: 19C2 (anti-human PTK7 murine antibody) (antibody, V domains shown)
VH: QVTLKESGPGILKPSQTLSLTCSFSGFSLTTSGMGINWIRQPSGKGLEWLALIWWDDDKYYNPSLKNRLTVSKDPSRNQVFLTITSVDTTDSATYYCARSLITTAPSDYWGQGTSVTVSS
VL: DIVMTQSQKFMSTSVGDRVSITCKASQNVGTAITWYQQRPGQSPQLLIYSASNRYTGVPDRFTGSGSGTDFTLTISNLQSEDLADYFCLQYSDYPLTFGAGTNLELK
notes: as for B1
B5: 101A6 (anti-human PTK7 murine antibody) (antibody, V domains shown)
VH: EVKLVESGGGLVQPGGSLSLSCAASGFTFTDYYLSWVRQPPGKALEWLALIRNKANGYTTEYSASVKGRFTISRDSSQSILYLQMDALRAEDSATYYCARDTLAAYWGQGTSVTVSS
VL: DIVMTQSHKFMSTSVGDRVSFTCKASQDVGSAVIWYQQKPGQSPKLLIYWASTRHTGVPDRFTGSGSGTDFTLTISNVQSEDLADYFCQQYSSYPLTFGAGTKLEIK
notes: as for B1
B6: 101A6-CH (anti-human PTK7 chimeric antibody of 101A6) (antibody, human IgG1, kappa, V domains shown)
VH: EVKLVESGGGLVQPGGSLSLSCAASGFTFTDYYLSWVRQPPGKALEWLALIRNKANGYTTEYSASVKGRFTISRDSSQSILYLQMDALRAEDSATYYCARDTLAAYWGQGTSVTVSS
VL: DIVMTQSHKFMSTSVGDRVSFTCKASQDVGSAVIWYQQKPGQSPKLLIYWASTRHTGVPDRFTGSGSGTDFTLTISNVQSEDLADYFCQQYSSYPLTFGAGTKLEIKR
notes: The label '-CH' is not defined in words
B7: 8H3 (anti-human PTK7 murine antibody) (antibody, V domains shown)
VH: EVKLVESGGGLVQPGGSLSLSCAASGFTFTDYYMSWVRQPPGKALEWLALIRNKANGYTTEYSASVKGRFTISRDNSQSILYLQMNALRAEDSATYYCARDSFEVYWGQGTLVTVSA
VL: DIVLTQSHKFMSTSVGDRVNITCKASQDVGTAVAWYQQKPGQSPKLLIYWASTRHTGVPDRFTGSGSGTDFTLTIRNVQSEDLADYFCQQFSSFPFTFGGGTKLEIK
notes: as for B1
B8: 64A10-CH (anti-human PTK7 chimeric antibody of 64A10) (antibody, human IgG1, kappa, V domains shown)
VH: QVQLKESGPVLVAPSQSLSITCTVSGFSLTSYGVYWVRQPPGKGPEWLGVIWTSGNTNYNSALMSRLSISKDNSKSQVFLKMNSLQTDDTAMYYCVKHDGGNYVGVMNYWGQGTSVTVSS
VL: DIQMTQSPATLSVTPGDRVSLSCRASQSISDYLHWYQQKSQESPRLLIKYASQSISGIPSRFSGSGSGSDFTLSINSVEPEDVGVYYCQNGHSFPPTFGGGTKLEIKR
notes: as for B6
B9: 64A10 (anti-human PTK7 murine antibody) (antibody, V domains shown)
VH: QVQLKESGPVLVAPSQSLSITCTVSGFSLTSYGVYWVRQPPGKGPEWLGVIWTSGNTNYNSALMSRLSISKDNSKSQVFLKMNSLQTDDTAMYYCVKHDGGNYVGVMNYWGQGTSVTVSS
VL: DIQMTQSPATLSVTPGDRVSLSCRASQSISDYLHWYQQKSQESPRLLIKYASQSISGIPSRFSGSGSGSDFTLSINSVEPEDVGVYYCQNGHSFPPTFGGGTKLEIK
notes: as for B1

Tests used:
[1] = target: T1, human PTK7 on cells (tumor cells …); assay: flow cytometry on H358 cells endogenously expressing PTK7
[2] = target: T2, human PTK7 protein (extracellular …); assay: ELISA, coated human PTK7 protein 1 µg/ml
Protocol: (§1) Original data was imported into software for nonlinear curve fitting, and EC₅₀ of binding of each antibody to human PTK7 and monkey PTK7 was calculated, respectively. As shown in Table 1 and FIGS. 1A-1B, the screened antibodies could be bound to the human and monkey PTK7 proteins with affinity higher than that of the control antibody Hu24.

[3] = target: T1, human PTK7 on cells (tumor cells …); assay: flow cytometry on H1299 cells endogenously expressing PTK7
[4] = target: T3, monkey PTK7 protein (extracellular …); assay: ELISA, coated monkey PTK7 protein 1 µg/ml
Protocol: as §1

[5] = target: T2, human PTK7 protein (extracellular …); assay: ELISA, coated human PTK7-His protein 1 µg/ml
Protocol: The original data was imported into software for nonlinear curve fitting, and the EC₅₀ of binding of each antibody to the human PTK7 was calculated, respectively.

[6] = target: T1, human PTK7 on cells (tumor cells …); assay: flow cytometry on H1299 cells
Excerpt: A flow cytometer (Beckman, Cytoflex) was used for detecting the affinity of the anti-human PTK7 chimeric and humanized antibodies with human non-small cell lung cancer cells H1299, human lung adenocarcinoma cells H1975, human breast cancer cells T47D, human ovarian cancer cells OVCAR-3 (all purchased from NANJING COBIOER BIOSCIENCES CO., LTD) and CHO-hPTK7 overexpression cells.
The adherent cells were digested by using a pancreatin (Gibco) solution; a proper amount of cells were counted and taken, washed twice by using 1×PBS, and re-suspended in a 1% BSA solution; and then the cells were transferred into a 96-well deep plate at a density of 50 μl/well; a candidate antibody was diluted by using 1% BSA, then 50 μl of diluted antibody was added into the deep plate containing the cells, and incubated for 40 min at 4° C.; the cells were washed twice by using PBS, then 50 μl of diluted secondary antibody was added into each well, uniformly mixed, and incubated for 30 min at 4° C.; and the cells were washed twice by using PBS, then re-suspended in 400 μl of PBS, and subjected to examination by flow cytometer.

Binder	EC50 [1]	EC50 [2]	EC50 [3]	EC50 [4]	further results
B1	0.0441 µg/mL				
B2	0.035 µg/mL				
B3		0.0218 µg/mL	0.0875 µg/mL	0.0158 µg/mL	
B4	0.0583 µg/mL				
B5		0.0131 µg/mL	0.245 µg/mL	0.0187 µg/mL	
B6					EC50 [5]: 0.0316 µg/mL; EC50 [6]: 0.158 µg/mL
B7		0.0113 µg/mL	0.21 µg/mL	0.0168 µg/mL	
B8					EC50 [5]: 0.0258 µg/mL; EC50 [6]: 0.355 µg/mL
B9		0.0132 µg/mL		0.00765 µg/mL	
